The values that follow come from the DeepSol protein solubility set.

The nature of this data set: soluble on expression in E. coli; label from the status in PepcDB or PDB records.
As to “KILAVTACPTGIAHTFMAADALKEKAKELGVEIKVETNGSSGIKHKLTAQEIEDAPAIIVAADKQVEMERFKGKRVLQVPVTAGIRRPQELIEKAMNQDAPIY”, the “soluble on expression in E. coli” value is listed as “soluble”.

As for “MKPKPSQFKNLERMLGLKTEQLDAVKVTIELKDKILIIENPTVIKMIAQGQEIYSVIGEAKEAQKEEPKVEIKDEDVKFVMEQTGKGEQEVKEALQKANGDIAKAILLLTGQET”, the “soluble on expression in E. coli” value is reported as “soluble”. The entry for “MAPLNYKTITSRSILSKVLVRATQQWPTDKTLNKQLSELYGAYVNSFVSKFKDKHVITISLEVVNEKFLKDKTPLFEKGLDTLKEIIWNPLIKDRCFDHTYVAQEKSLLSKKLEAMEDNKAQYSFLQLMNYMFKQEPYRYIATGQLEQIPQVTSESLYDTYLSMVQNDDCAIYVVGNINKEEVTQLILDKFAIKPFYLENKESTEITPSFDQPQYIIEKDDVDQAKLNLGYRFPSYYGKSNYYAFIVLNMMFGGDPSSVLFNEVREKQSLAYSIHSQIDGKNGFLFVLSGVSAEKYEQAKDTVIKEFDKIKNGDFDSNKIELAKKIIISHRHEASDRPKSIIEILHNQLLLNRQQTDQDFINAVNQVTKKDVIKLANEAVLDTIYVLTKGDQH” is “not soluble”; for “MSDEKKSTDIDLKNLKAGGFIKERGKDLFTVRLRVPGGRMPVARLKKIAEVAEKYGQGMVHLSVRQSVELININFRDFDAVVAELGEGTQKVASCGARVRVPTACGGCEYNPNGLVDTQKSALEVDEKLFGTSTGHHKFKVGFAGCPFDCPKSATNDVGFQGAIWPVLYADECIGCGLCDKSCTEDAIVMGDDGKPRFIPENCLYCGDCLKVCPSEAWRAEKKGYTVRIGGKWGRRPLVGTLFAEFLPEEQVFDFIAAVLDWYKEKAEGQGRIRLGDVIRAEGPDALLGYLRERFPAAVVDATIPPQRIATQIGKEKRVPLEHHHHHH” it is “soluble”; for “MKEIKVIIAGPRGRMGHEAVLLMERTEHFNLVAAVDYKHGGEKISDLPGMPALHAPIYADLHTCLDEVEADVLLDLTTPEVGKQHVTLAVERGLRSVIGTTGFTEEELTRLTENAKEKAVGTIIAPNFAIGAVLMMKFSQMAAKYFQDVEVIELHHDQKLDAPSGTAVKTVELIRQNRESKQQGHPNEVEQLAGARGANVDGIHIHSVRLPGLIAHQEVMFGGDGQMLTVRHDSFNRASFMSGVKLSIETVMNLDHLVYGLENIID” it is “not soluble”. With “MGSSHHHHHHGGTGENLYFQGGSGSSVTPTIPFKAWLKLHAKAICQALPLSLLIVVEARDLYYRATWDVAPVPPSKFEVGDVIAVCNRWYTLPTWSHVVYSWLSKVLLKSCWDDVGVISSVKNGTPHILYVDFHGVHEQPLATFLETRCPRGAAVRKLRRDEGVPSPSPAIADLFRKEVEMISVEPWFLFSASMRGGNEHKYYEFCVRMHEQRCKIRSMLQRRQSRPAIEAQQTSLKEMEVMRQHLAKFVEPVTHFHLYNGSLVASFFATYGLLDREMPSPSRYVPQDFAHTIPFLGATTLDEPIVFFRN” the entry was “not soluble”; with “MASRRELKKNVNYIAGELFTECLINSMFIPGTDKAKADELMAEVLRMQDEFVSRISHTEPGNVKGFYKKFRVDFNAKVNEIIEAIGKLN”, “not soluble”.

For “MSKLFPGEVFANTADFDTGIRQLLPRYDEMLEVICRCLPLTSRRILDLGCGTGELSLKILQRCPDAQVIALDYSPRMLKFAQNKIVASGYKERWTGLQADFGDWAINPETLNIGNEFDACVSSLAIHHLYDEMKLQLFQRIAASLTPNGCFWNADPILPESPTLAEIYQAAREEWVSEQGSNFTEVRAKVGDSSPQGYSNPDQLATLDTHLQMLTKSGFTTVAVPWKYYGLAVFGGWVKLEHHHHHH”, the “soluble on expression in E. coli” value is “soluble”. With “MGSDKIHHHHHHMTAQNGQDVWHEDILDDSAIAVLSYPIGEMQRDQLHSHGYHQIAMCEQPGATLLLGSQVVSIPWNGALLVPSGTDHALTSETRCVIRCIYFKAALPSTSIGSLFLNRLTKELIKEISTSYVTERSRRLMEACLYDQIGQLLWSSGSGMMPPSRSLRVICKHIFDTPEDDTPVATLAKDAGLSERSLRRLARDELGCTISQIRTRCRIYKATQLLQAGVPVKLIAADVGYQSNSAFFSAFREIMGMSPARFQAECAASRSLSHLRLK” the entry was “not soluble”; with “VEQIMIQGTASDAGKSVIVAGLCRLFKNKGKRVVPFKSQNMSLNSFITATGDEMGRAQVFQAEAAGVFPDVRMNPVLLKPTNDRQSQVIFMGAILDNMDAVSYHDFKQTLIPKIQAVYQSLADENDIIVLEGAGSPAEINLNDRDIVNMGMAKMVDAPVVLVADIDKGGVFASIYGTIMLLKEEERARLKGVIINKFRGDVALLQPGIEMIEELTNVPVIGVIPYANLQL”, “not soluble”. The entry for “MGIGNENKGFITASADALINWVRTGSLWPVTTGLACCAVEMMHAGAARYDLDRFGIVFRPSPRQSDVLIVAGTLCNKMAPALRQVYDQMPDPKWVISMGSCANGGGYYHYSYSVVRGCDRIVPVDIYVPGCPPTAEALVYGIIQLQNKIIRKDTIARK” is “not soluble”; for “MKDLIIIGAGQAGLTMGYYLKQEGYNFLLLEAGNRVGDSWRNRYDSLQLFTPRSYSSLPGMALIGEKNEFPYKDEIATYLEEYARHFQLPVQLQTEVLKIRKEKGIFELHTSTEILQTKKVIIATGGFQQPFIPSVSANLSSHVFQIHSSQYKSPSQIPQGKVLVVGGGNSGMQIAVEFAKTHEVTMSISHPLTFLPLHFFRKSIFNWLEKLGLLYAEVSTKRGKWFQKRKDPLEHHHHHH” it is “soluble”.

For “MSYQFTELKEELIIKKIVSLHYFEYMSDFTFPGESHNFWEFLYVDKGELQVTADREKFILRQGQIIFHRPNEFHALAANNVIAPNLVVISFEAGEPCMAFFEHKILTVGESERNLLSQIIAEARETFDGPMDDPYMEVLSRRESIPFGAEQMIKIHLEQFLIQLFRNFSGTLAFGENHKLNGAHAPGKSPALADGNELFSDILDYLDRNIGKSLTVEKICRDNLIGVSQLKKLFRTYQGSGVMECFNQMKINAAKQMIRNQQMNFTQIADALGYTSVHYFSRQFKKLTDMTPTEYRASIMLRAKRPQRKHL”, the “soluble on expression in E. coli” value was “not soluble”. The entry for “GPLGSMDQSVAIQETLVEGEYCVIAVQGVLCKGDSRQSRLLGLVRYRLENDAQEHALFLYTHRRMAITGDDVSLDQIVPLSKDFMLEEVSPDGELYILGSDVTVQLNTAELKLVFQLPFGSHTRTFLQEVARACPGFDPETRDPEFEWLSRHTCAEPDAES” is “soluble”; for “AIAVIVSRCGTGGSVTEHANEVVMKLEALQRPGGLPLSILLVLAGLTKRGASDLRHPIAEDRQSLSCATVQPSLQDV” it is “soluble”; for “MAHHHHHHMSWLTPSGSSYFLSKVVVNSAPCAPLHLLVMHRCRVAFPCVNYRPLLWRGMLQVPSRPTICDNSLKVQLRHSRISSFKQEGYYRFARAKDIHVDESCFTLLTARGGGPGGQGSNSSSNKVEMRVNMASLSEYFDEELIGNIKANECGKALTSDETQLIISSHEHRSMYQNKEECIRRLQQMIHVASWVPPVEANPIKKPSHIVSERKNERRKKSAVKKMRQTARKGLW” it is “not soluble”. With “MGSDKIHHHHHHMKLVFRWYGEKHDTVTLEQIRQIPGVEGVVGALFDIPVGEVWPFEEIMKLKETVEKAGLKLEVIESVNVHEDIKLGLPTRDRYIENYKKTIRNLAKAGVKVVCYNFMPVFDWMRTDLHKKLPDGSETMEYDHRLIEGVTPDELIKRVKEGSQGFVLPGWEWDRLEKLRETFELYKNVDEEKLFENLVYFLERVIPVCEECDVKLAIHPDDPPWSIFGLPRIITNKENIERMLKAVDSPYNGITFCMGSLGANPENNIPEMIRYFGKMGRIHFAHVRNLKFTGEKSFYETAHPSFCGSHDLFEVMKAFHDIGYEGYIRPDHGRLIWGEKARPGYGLYDRALGATYILGLWEAIDKMKKRYC” the entry was “not soluble”; with “LSGMTGNQSPAALMSSNIDLLDAITPNVRDALTALFANIACYVLGSIWFRAGVAERIQASAFVSPGKLKNNASKKSGPISQQDLLILASRFVSPTRAYESFSRFSTEAVKSDSWHKAATPELIAHTERLLAGVLGASSASLVMDSVLQGRDLALDEVFSLVDEASSKIMLSQDMLRGAIEHAYEGMSVIDSDLNLVAWNYKYVELYQYPEGFLQQGMPISEVI”, “not soluble”. With “MTKDILILAVETSCDETSVSVIKNGRDILSNTVLSQIESHKRFGGVVPEVASRHHVEGITATINEALGDADVSIEDIDAIAVTEGPGLIGALLIGVNAAKALAFAYDKPLIPVHHIAGHIYANHIEEPLTFPLIALIVSGGHTELVYMKDHLSFEVIGETRDDAVGEAYDKVARTIGLNYPGGPQVDRLAAEGEDTYSFPRVWLDKDSYDFSFSGLKSAVINQLHNQRQKNIPIIEANVATSFQNSVVEVLTFKAIQACKEYGVQRLIVAGGVASNKGLRQSLADQCKVNDIQLTIPSPKLCTDNAAMIGVAGHYLYQQGRFADLALNGHSNIDLEEYSAE” the entry was “not soluble”; with “MTLEQQDRTEQQLAALNAQVRQDLCYLNYPAANWSKPVSTSDGQLVSDVVIIGGGMCGLVAWHALTRAGIANIRIVDRAAKGEEGPWVTYARMETLRSPKNLLGPALGMASLTFRAWYTARFGKEAWEELFRIPRPMWMEYLSWYRQVMEIPVENNIHVTRVIPRLDGLLELEIEGGKADPIITRKLVMATGRDGLGEPTIPDFVKGMPRHVSWAHSADMIDFQRLKGKRVVVIGVGASAVDNAAEALEQGAGEVRLLARRKTMPTINKLMGIGSYGVTAGFAKIDPEWRWRLMDYSVKQQTPAPHNSTLRVSRHSNAYFHFDCGIQSMKEEGGEVVITTINGRVFRTDFVILGTGFSIDPVSRPELEMFNGQIACWEDRYTPPAGEENPGLGRFPWLQDDFSFTEKEPGAAPWLQHIHCFNYGSSVSLGKVSGDIPAISEGALWLARGIAASLFIADIDHHWEALKAYEKPELDGSEWTDADADPSMQKTALEHHHHHH”, “soluble”; with “MGSDKIHHHHHHMNIFDILRDYLLVQVDKYNLNMDMISIVSKSLSSKEAIGNTKRKDFPIIVGKEIMLEADFKGAKGQAFTSTPSTFEGSLKDILSLDLHDNPHDRSLFIASLNAVMKYLGKTDRTIHCKNNEPEVCAKKFPEFIKMEFGNPKVAIIGYQPAIIDNIKDFFETRVLDLNPEFVDTIQYNVKIEDGIRDYEDVISWADLVICTGSTLCNNSIINFLSLNKPVYYYGTTIAGASNILGLKRLCFCSK”, “not soluble”. As to “MNTQTGTGTSEVSKKLKAAIRAKLEELGVYVDDELPDYIMVMIANKKEKVQMKDDLNLFIGKSTAKFVDWLFDLFDRLQNASNKQGETSKKEEDKRKELEATAAAKEHEEKRRKEKEEHEKELQKEKEREKERQRERDREKRAEEEKRREEKRKEIQRSKRRRTRSRSNTYSDEEEHVRARGEKHDRHHHKDHRRGRSHERKIITSTIVRQASASPDKKLHSTVTVKRNIRPTGDQNIKGRGTMFLRAMNEASVSAGYGSSSKRSETHHEDDMSDVEALPSKPASTKSPKKSIRDRMSRISKTSEPPIEEDDAVVLEDFAQTGGGPQMILKLSGGREAIKKTRIQDRIVVDDGLRRGLLKRKIETASGASAGAATSEEPKSKHDRIIFDITPSRDSTPTDDSPTMQKWNGQIEIGDDSEESEDDEEAEIDAFVAEARGIARRESFRDEEDELPPTHQLSGGPYAYHHSTAAPTYIPTPLSVLSEQQNQMGGGAAKEDHHVKERCIFWPKCTKGDTCAFMHPTTNCKNFPNCTFGIRCLFIHPPCRFDRFCTKKHCPFTHHGTGGQQPGGAQLTSEFKNPLTSSRMLTVPSPFIAATAAAVEELPKPAARGALGSLAEKLAASIKKKPAPGAESEKKEEKSDENESKAEEPKAEVAPVQPKPLPDIAPLHSMVLCRYAGACRNPICHFKHPKECRFGANCRNPSCYFYHKPAGAAPTPVAAPIAAESAGAAKYKWTSATAN”, the “soluble on expression in E. coli” value is listed as “not soluble”.
